Among the data in the RNAGym collection of RNA variant scans (doi:10.7554/elife.80360) are self-cleavage values, retold here.

B1: HDV Ribozyme (parent)
chain: GGCCGGCAUGGUCCCAGCCUCCUCGCUGGCGCCGGCUGGGCAACAUUCCGAGGGGACCGUCCCCUCGGUAAUGGCGAAUGGGACCCA

Variants of B1 are the subject of this series. Briefly: self-cleavage, relative activity (ratio to wild type); higher = more cleavage; co-transcriptional.
Turning to C63A G81A, the self-cleavage came to 0.446. Turning to C61G C75G, the self-cleavage was determined as 0.113. Consider C61G C75A, for which the self-cleavage turned out to be 0.166. Turning to C62A C63A, the self-cleavage stood at 1.03. Under C62U G76C stands 0.941. Turning to C63U C84G, the self-cleavage worked out at 0.63. C63U C84U: the self-cleavage came to 0.726. With C61A G82C the figure was 0.228; with C66A C75A, 0.248. For U60G C66A, the self-cleavage stood at 0.831. On to C64U C85G, for which the self-cleavage came to 0.851.

For C64U C85U, the self-cleavage was found to be 1.08. With C66A C84G the figure was 0.692. Turning to C61G G80C, the self-cleavage was 0.348. For C61G G80U, the self-cleavage is 0.275. Consider C66A A87U, for which the self-cleavage came out at 0.994. With C61U A78U, the self-cleavage came out at 0.326.

Consider C62U A77C, for which the self-cleavage is 0.491.

As to C61U A70U, the self-cleavage was determined as 1.02. Consider C62G G81A, for which the self-cleavage turned out to be 0.299.

For C61G A77U, the self-cleavage turned out to be 0.394. As to U65G G82A, the self-cleavage came to 0.162. On to U65G G73A, for which the self-cleavage was 0.363. Turning to U60C C85A, the self-cleavage turned out to be 0.712. Turning to U60C C85U, the self-cleavage was 0.989.

As to C64A A71G, the self-cleavage came to 0.529. On to C62A C75U, for which the self-cleavage was 0.108. For C64U G67C, the self-cleavage came out at 0.906. C64G C85A: the self-cleavage is 0.956. As for C64G C85U, the self-cleavage was 1.17. For C64A A87G, the self-cleavage was 0.902. Regarding C61A A78G, the self-cleavage turned out to be 0.678. Consider C61G A70U, for which the self-cleavage worked out at 1.04. As to C62G U69A, the self-cleavage stood at 1.04. For the variant C62G U69G, the self-cleavage came to 0.804.

C64A G68A: the self-cleavage was 0.537. As to C61A A70G, the self-cleavage came to 0.812.

For the variant U65C G68U, the self-cleavage amounted to 0.831. As to U65G C85G, the self-cleavage came to 0.692. Take U65G C85U: the self-cleavage came out at 0.831. U65C A78G: the self-cleavage was 0.731.

In the case of U60C U72C, the self-cleavage stood at 0.539. For the variant C64G C75U, the self-cleavage was 0.163. With C63G G76U, the self-cleavage worked out at 0.978.

For the variant U60C G67U, the self-cleavage was found to be 1.03. As for C64G C66U, the self-cleavage was determined as 0.955. On to C64G C66G, for which the self-cleavage worked out at 0.742. Under C64G C66A stands 0.888; under C62U C86U, 0.845; under C64U A78U, 0.297. As to U60A U72A, the self-cleavage amounted to 0.739. As to U60G G81U, the self-cleavage turned out to be 0.123.

C63G C86U: the self-cleavage was found to be 0.816.

As to C63G C86A, the self-cleavage stood at 0.95.

Consider C62G C86G, for which the self-cleavage stood at 1.14. For the variant U65G G74A, the self-cleavage was determined as 0.3. Under C64A C85A stands 0.623; under C62U G82C, 0.242. Take C62U G82A: the self-cleavage stood at 0.338.

Consider U65C A83C, for which the self-cleavage was found to be 0.867. Under U60G U79A stands 0.665. As to U65A G68U, the self-cleavage was 0.87. Turning to U60C A70G, the self-cleavage was found to be 1.15. Take C61A C64U: the self-cleavage was found to be 0.997. For C61U G80A, the self-cleavage came out at 0.242.

For the variant C61U G80U, the self-cleavage turned out to be 0.217.

U65A G81C: the self-cleavage amounted to 0.502. For U65A G81U, the self-cleavage was found to be 0.353. C63A C75G: the self-cleavage amounted to 0.201. For U60A G81C, the self-cleavage stood at 0.0811. Consider U60A G81U, for which the self-cleavage was 0.151. For C62A G76U, the self-cleavage came out at 1.08. On to C63U U69A, for which the self-cleavage amounted to 0.975. As for C63G U79G, the self-cleavage worked out at 0.692. For the variant C62A A71U, the self-cleavage was 0.892. With C62U U65G the figure was 0.631; with C62U U65C, 0.988. With C62U A87C, the self-cleavage came out at 1.11. For C62U A87G, the self-cleavage came to 1.05.

Turning to C63A C86G, the self-cleavage came out at 1.02. Regarding C63A C86U, the self-cleavage amounted to 0.784. As to C62G G67U, the self-cleavage came to 0.423. With C64U C75G the figure was 0.106; with C61U A77G, 1.12.

In the case of C61A G73C, the self-cleavage came to 0.415. As to C61G U79G, the self-cleavage turned out to be 0.437. With C63G A78U the figure was 0.185; with C63A G82C, 0.122; with C61U G67C, 0.78. With C61U G67A, the self-cleavage was determined as 0.562. Regarding C64A G81A, the self-cleavage worked out at 0.386. Regarding U65G A83U, the self-cleavage came to 0.571. As for C62G A78C, the self-cleavage was 0. On to C64G G81C, for which the self-cleavage turned out to be 0.208. With C61G G67C the figure was 0.945; with C61G G67U, 0.649; with C64G A87U, 0.786. With C64G A87G, the self-cleavage came to 0.853. In the case of C64G A87C, the self-cleavage was 0.778. Consider C64A C84U, for which the self-cleavage turned out to be 0.694.

As for C62G G76C, the self-cleavage worked out at 0.937. Consider C62G G76U, for which the self-cleavage amounted to 1.03. Take C62U G67U: the self-cleavage stood at 1.02. C62U G67C: the self-cleavage turned out to be 0.923. With C64U U79A the figure was 0.597; with C62U, 0.994; with C62A, 0.979.

As for C62G, the self-cleavage stood at 0.695. With C64U U72A the figure was 0.567; with U65C G81C, 0.227. Under C61A C62G stands 0.892. On to U65C G74C, for which the self-cleavage turned out to be 0.204. As for C64U U69A, the self-cleavage came to 1.02.

Consider C63A G68C, for which the self-cleavage came out at 0.495. Turning to U65G G81A, the self-cleavage was determined as 0.282. With U60C G81U the figure was 0.424. Under C61U G82U stands 0.518; under U65C C86U, 0.516. In the case of U65A C86G, the self-cleavage worked out at 1.12. Take C61U C85U: the self-cleavage is 0.917. As for U60A G80A, the self-cleavage stood at 0.3. As to C61G G74C, the self-cleavage is 0.225. On to C61G G74A, for which the self-cleavage was 0.429.

Regarding C64A C86U, the self-cleavage is 0.886. Under C64A C86G stands 0.923; under C62G C66A, 0.323. Take C64A U79A: the self-cleavage was 0.796.

As for C64A U79G, the self-cleavage came to 0.684.

Take U65C G82C: the self-cleavage came to 0.252.

U60C A87C: the self-cleavage worked out at 1.05. On to U60C U79A, for which the self-cleavage came out at 1.23. With U60C U79G the figure was 0.554; with C61A U79C, 0.506; with C63U G81U, 0.361. For the variant C66A C86G, the self-cleavage worked out at 1.12. Consider C66A G67A, for which the self-cleavage was 0.864. For the variant C64G A77C, the self-cleavage came out at 0.431. Turning to U65A A70C, the self-cleavage was 0.643. Turning to C62U C66U, the self-cleavage was found to be 0.953. C61U C66G: the self-cleavage worked out at 0.529.

Turning to C64G A71C, the self-cleavage is 0.68. For the variant C66A A77C, the self-cleavage was 0.237.

For U65G G76U, the self-cleavage amounted to 0.966. Under C64U G80A stands 0.397.

Regarding C64U G80U, the self-cleavage turned out to be 0.247. In the case of U65G A70C, the self-cleavage was determined as 0.601. With U60C C64A, the self-cleavage was determined as 1.13. C64A C66U: the self-cleavage was found to be 0.567. As to C62A A77C, the self-cleavage is 0.623. As for C63U U65C, the self-cleavage was found to be 1.14.

Consider U60G A77G, for which the self-cleavage turned out to be 1.09. As to C62U G73U, the self-cleavage worked out at 0.472. With C62U G73A the figure was 0.808; with U60C A83C, 0.443. In the case of C62A A87G, the self-cleavage turned out to be 0.867. For C62A A87C, the self-cleavage worked out at 0.946. With C61G C66U the figure was 1.08.

Take U60C G82U: the self-cleavage stood at 0.495. Take C61U A71C: the self-cleavage was determined as 0.746. With C61A U69C the figure was 0.906. As to C61A A77U, the self-cleavage was found to be 0.389. As for C61A A77G, the self-cleavage was 1.03. For the variant U60C A77C, the self-cleavage was 0.575. As to U60C A77G, the self-cleavage was 0.831. For the variant C61U G74A, the self-cleavage worked out at 0.463. With C61U G74C the figure was 0.253; with U65C A71G, 0.935.
